Experimental data as given in publication PMC4116228.

Columns and labels:
Active MMP-2 = assay: enzyme inhibition (fluorogenic substrate, Ki by the Morrison equation); Active MMP-2 (0.76 nM) with FLAG-TIMP-1 or FLAG-T2G (0.17 to 13.5 nM), 2 h at 27 C; 50 mM Tris-HCl pH 7.5, 150 mM NaCl, 5 mM CaCl2; substrate MCA-Pro-Leu-Gly-Leu-Dpa-Ala-Arg-NH2
[1] = target: Endogenous LRP-1 of mouse cortical neurons (alpha-chain and beta-chain) (mouse (endogenous in primary cortical neurons))
[2] = target: HA-tagged mini LRP-II (LRP-1 mini-receptor with ligand-binding domain II)
[3] = target: HA-tagged mini LRP-IV (LRP-1 mini-receptor with ligand-binding domain IV)
[4] = target: Endogenous LRP-1 of mouse cortical neurons (alpha-chain and beta-chain) (mouse (endogenous in primary cortical neurons)); remark: listed apart in the source
[5] = target: Recombinant human LRP-1 Fc-tagged mini-domain II (human); assay: SPR; Fc-DII or Fc-DIV captured by anti-Fc antibody immobilised on a CMD500m chip (around 8 fmol/mm^2); TIMP-1 or EGF 5 to 80 nM injected sequentially (single-cycle kinetics, 2 min at 50 ul/min); 25 C; HBS (50 mM HEPES-NaOH pH 7.4, 150 mM NaCl, 0.005% Tween-20); corrected for Fc-coated flow cell and blank run; 1:1 titration kinetic model; Biacore T200
[6] = target: Recombinant human LRP-1 Fc-tagged mini-domain IV (human); assay: as above

Substance “FLAG-tagged full-length TIMP-1 T2G mutant (from UniProt P01033 24-207) (natural protein)” has a Ki (Active MMP-2) of 18.9 nM.

“FLAG-tagged wild type TIMP-1 (from UniProt P01033 24-207) (natural protein)” showed a growth cone volume of cortical neurons after 30 min with 10 nM TIMP-1; the increase is prevented by RAP or blocking LRP-1 antibodies [1] of 2.8 fold and a Ki (Active MMP-2) of 0.09 nM.

For “Fluorescent TIMP-1 (eFluor-conjugated recombinant TIMP-1) (from UniProt P01033 24-207) (natural protein)”, the internalisation of surface-bound fluo-TIMP-1 (10 nM) by DII-overexpressing CHO cells after 2 h at 37 C (pronase-resistant fluorescence); significantly impeded by 500 nM RAP [2] was 50%, the internalisation of surface-bound fluo-TIMP-1 (10 nM) by DIV-overexpressing CHO cells after 2 h at 37 C (pronase-resistant fluorescence); significantly impeded by 500 nM RAP [3] was 50% and the inhibition by 500 nM RAP of the internalisation of fluo-TIMP-1 by cortical neurons (37 C, pronase-resistant fluorescence) [4] was 2 fold.

Work on “Human recombinant TIMP-1 (tissue inhibitor of metalloproteinases-1) (from UniProt P01033 24-207) (natural protein)” yielded a Kd [5] of 11.2 nM, a koff [5] of 0.021 s⁻¹ and a kon [5] of 1.87e+06 M⁻¹ s⁻¹. For the same substance, the Kd [6] was 52.4 nM, the koff [6] was 0.0135 s⁻¹ and the kon [6] was 255000 M⁻¹ s⁻¹.
